Test results taken from patent US20260327304 (published 2026).

Biological target: T1, human CD3 protein (human)
T1 chain: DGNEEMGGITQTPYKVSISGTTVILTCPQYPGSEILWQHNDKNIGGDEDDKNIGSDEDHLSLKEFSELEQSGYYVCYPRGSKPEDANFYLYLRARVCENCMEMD
Experiment: BLI

Kd [nM]	Binder
26.3	huB1G5-CD3Fab (CD3 arm) (antibody, V domains shown) VH: EVQLVESGGGLVQPGGSLKLSCAASGFTFSTYAMNWVRQAPGKGLEWVGRIRSKYNNYATYYADSVKDRFTISRDDSKNTLYLQMNSLKTEDTAVYYCTRHGNFGNSYVSWFAYWGQGTTVTVSS VL: QAVVTQEPSLTVSPGGTVTLTCRSSTGAVTTSNYANWVQQKPGQAPRGLIGGTNKRAPGVPARFSGSLLGGKAALTLSGAQPEDEAEYFCALWYSNLWVFGGGTKLTVL
22.6	huB1G5-CD3-2VHH (CD3 arm) (antibody, V domains shown) VH: EVQLVESGGGLVQPGGSLKLSCAASGFTFSTYAMNWVRQAPGKGLEWVGRIRSKYNNYATYYADSVKDRFTISRDDSKNTLYLQMNSLKTEDTAVYYCTRHGNFGNSYVSWFAYWGQGTTVTVSS VL: QAVVTQEPSLTVSPGGTVTLTCRSSTGAVTTSNYANWVQQKPGQAPRGLIGGTNKRAPGVPARFSGSLLGGKAALTLSGAQPEDEAEYFCALWYSNLWVFGGGTKLTVL
35.7	huB1G5-ScFv-2VHH (CD3 arm) (antibody) EVQLVESGGGLVQPGGSLKLSCAASGFTFSTYAMNWVRQAPGKGLEWVGRIRSKYNNYATYYADSVKDRFTISRDDSKNTLYLQMNSLKTEDTAVYYCTRHGNFGNSYVSWFAYWGQGTTVTVSSGGGGSGGGGSGGGGSQAVVTQEPSLTVSPGGTVTLTCRSSTGAVTTSNYANWVQQKPGQAPRGLIGGTNKRAPGVPARFSGSLLGGKAALTLSGAQPEDEAEYFCALWYSNLWVFGGGTKLTVLG

Biological target: T2, cynomolgus monkey CD3 protein (cynomolgus monkey)
T2 chain: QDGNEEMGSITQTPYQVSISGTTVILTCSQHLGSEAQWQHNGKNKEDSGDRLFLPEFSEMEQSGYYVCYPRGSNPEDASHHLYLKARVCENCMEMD
Experiment: BLI

Kd [nM]	Binder
6.59	huB1G5-CD3Fab (CD3 arm) (antibody, V domains shown, ACRO CDD-C52W4) VH: EVQLVESGGGLVQPGGSLKLSCAASGFTFSTYAMNWVRQAPGKGLEWVGRIRSKYNNYATYYADSVKDRFTISRDDSKNTLYLQMNSLKTEDTAVYYCTRHGNFGNSYVSWFAYWGQGTTVTVSS VL: QAVVTQEPSLTVSPGGTVTLTCRSSTGAVTTSNYANWVQQKPGQAPRGLIGGTNKRAPGVPARFSGSLLGGKAALTLSGAQPEDEAEYFCALWYSNLWVFGGGTKLTVL
6.92	huB1G5-CD3-2VHH (CD3 arm) (antibody, V domains shown, ACRO CDD-C52W4) VH: EVQLVESGGGLVQPGGSLKLSCAASGFTFSTYAMNWVRQAPGKGLEWVGRIRSKYNNYATYYADSVKDRFTISRDDSKNTLYLQMNSLKTEDTAVYYCTRHGNFGNSYVSWFAYWGQGTTVTVSS VL: QAVVTQEPSLTVSPGGTVTLTCRSSTGAVTTSNYANWVQQKPGQAPRGLIGGTNKRAPGVPARFSGSLLGGKAALTLSGAQPEDEAEYFCALWYSNLWVFGGGTKLTVL
28.2	huB1G5-ScFv-2VHH (CD3 arm) (antibody, ACRO CDD-C52W4) EVQLVESGGGLVQPGGSLKLSCAASGFTFSTYAMNWVRQAPGKGLEWVGRIRSKYNNYATYYADSVKDRFTISRDDSKNTLYLQMNSLKTEDTAVYYCTRHGNFGNSYVSWFAYWGQGTTVTVSSGGGGSGGGGSGGGGSQAVVTQEPSLTVSPGGTVTLTCRSSTGAVTTSNYANWVQQKPGQAPRGLIGGTNKRAPGVPARFSGSLLGGKAALTLSGAQPEDEAEYFCALWYSNLWVFGGGTKLTVLG
